What was measured:
Test in all cases: purified protein
Type in all cases: biochemical, Campylobacter jejuni
Details in all cases: 100 mM HEPES pH 7.5, 200 mM KCl, 1.8 mM DTNB, 25 °C
purified protein [1] = substrate: CCCCCCCCCCCC(=O)SCCNC(=O)CCNC(=O)[C@H](O)C(C)(C)COP(=O)(O)OP(=O)(O)OC[C@H]1O[C@@H](n2cnc3c(N)ncnc32)[C@H](O)[C@@H]1OP(=O)(O)O
purified protein [2] = substrate: CCCCCC(=O)SCCNC(=O)CCNC(=O)[C@H](O)C(C)(C)COP(=O)(O)OP(=O)(O)OC[C@H]1O[C@@H](n2cnc3c(N)ncnc32)[C@H](O)[C@@H]1OP(=O)(O)O
purified protein [3] = substrate: CCCCCCCCCCCCCCCC(=O)SCCNC(=O)CCNC(=O)[C@H](O)C(C)(C)COP(=O)(O)OP(=O)(O)OC[C@H]1O[C@@H](n2cnc3c(N)ncnc32)[C@H](O)[C@@H]1OP(=O)(O)O
purified protein [4] = substrate: CCCC(=O)SCCNC(=O)CCNC(=O)[C@H](O)C(C)(C)COP(=O)(O)OP(=O)(O)OC[C@H]1O[C@@H](n2cnc3c(N)ncnc32)[C@H](O)[C@@H]1OP(=O)(O)O

B1: Cj0915 (Campylobacter jejuni subsp. jejuni NCTC 11168 = ATCC 700819) (protein)
chain: MRDMGEPKLKIVAMPSDTNPAGNIFGGWILSQIDLAGAIAARELSPERVVTISMDKVVFKEPVFIGDIISCYSKVVNVGNTSISVEVEVTAQRVDSQGCTSCINVTSALVTYVSVTRDGKKNPISEELKRIHGFLNA
**Q.** Which Km (purified protein [1]) does the source give for B1 here?
**A.** 13.9 ± 1.4 µM

**Q.** What about the Vmax (purified protein [1]) of the same protein?
**A.** 63.3 µmol/min/mg

**Q.** What about the kcat (purified protein [1]) of the same protein?
**A.** 15.6 ± 0.7 s⁻¹

**Q.** What about the kcat/Km (purified protein [1]) of the same protein?
**A.** 1.1e+06 M⁻¹ s⁻¹

**Q.** And the Km (purified protein [2])?
**A.** 39.3 ± 15.2 µM

**Q.** What about the Vmax (purified protein [2]) of the same protein?
**A.** 54.3 µmol/min/mg

**Q.** What about the kcat (purified protein [2]) of the same protein?
**A.** 13.4 ± 2 s⁻¹

**Q.** What about the kcat/Km (purified protein [2]) of the same protein?
**A.** 340000 M⁻¹ s⁻¹

**Q.** What about the Km (purified protein [3]) of the same protein?
**A.** 10.6 ± 0.6 µM

**Q.** What about the Vmax (purified protein [3]) of the same protein?
**A.** 38.9 µmol/min/mg

**Q.** And the kcat (purified protein [3])?
**A.** 9.6 ± 0.3 s⁻¹

**Q.** And the kcat/Km (purified protein [3])?
**A.** 910000 M⁻¹ s⁻¹

**Q.** And the Km (purified protein [4])?
**A.** 40.8 ± 10.3 µM

**Q.** What about the Vmax (purified protein [4]) of the same protein?
**A.** 55 µmol/min/mg

**Q.** What about the kcat (purified protein [4]) of the same protein?
**A.** 13.6 ± 1.3 s⁻¹

**Q.** And the kcat/Km (purified protein [4])?
**A.** 330000 M⁻¹ s⁻¹
